Values of other authors as cited in article PMC6005658.

Molecular target: arodyn (1)
Assay: radioligand binding

Sequence of μ opioid receptor (P33535 whole entry): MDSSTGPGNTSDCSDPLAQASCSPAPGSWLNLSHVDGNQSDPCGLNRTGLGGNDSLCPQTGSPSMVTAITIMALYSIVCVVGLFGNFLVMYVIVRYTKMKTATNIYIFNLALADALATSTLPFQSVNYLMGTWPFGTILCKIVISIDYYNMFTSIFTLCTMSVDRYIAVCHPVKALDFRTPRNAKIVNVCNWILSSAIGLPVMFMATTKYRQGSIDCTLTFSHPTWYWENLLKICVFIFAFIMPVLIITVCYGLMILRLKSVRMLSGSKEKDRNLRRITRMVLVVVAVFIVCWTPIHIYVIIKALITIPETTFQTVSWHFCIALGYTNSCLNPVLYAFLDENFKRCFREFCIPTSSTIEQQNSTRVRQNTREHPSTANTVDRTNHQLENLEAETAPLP
Sequence of κ opioid receptor (P34975 whole entry): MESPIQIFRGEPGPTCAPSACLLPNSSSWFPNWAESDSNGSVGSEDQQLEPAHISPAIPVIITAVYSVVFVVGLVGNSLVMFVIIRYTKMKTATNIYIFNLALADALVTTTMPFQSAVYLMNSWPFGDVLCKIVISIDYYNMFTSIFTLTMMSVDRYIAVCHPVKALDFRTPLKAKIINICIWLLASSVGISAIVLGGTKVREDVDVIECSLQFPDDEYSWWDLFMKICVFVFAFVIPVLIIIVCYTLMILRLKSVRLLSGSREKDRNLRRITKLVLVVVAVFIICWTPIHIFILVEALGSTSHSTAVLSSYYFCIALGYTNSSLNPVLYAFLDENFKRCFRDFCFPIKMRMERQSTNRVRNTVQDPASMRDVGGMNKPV

| Ki [nM] | Substance |
| --- | --- |
| 10 | κ opioid receptor (from UniProt P34975) |
| 1750 | μ opioid receptor (from UniProt P33535) |
